Data as given in patent publication US20200087416A1.
One block for each substance: values may come before it.

How the values were obtained:
[1] = molecular target: cynomolgus PCSK-9 (cynomolgus); assay: BLI (ForteBio), IgG on AHQ sensor, 100 nM antigen
[2] = molecular target: human PCSK9 (PCSK9 antigen, SEQ ID NO. 53) (human); assay: flow cytometry, PCSK9 left on CHO-LDLR cells (anti-His-FITC) after premix with 10 nM control IgG
[3] = molecular target: human PCSK9 (PCSK9 antigen, SEQ ID NO. 53) (human); assay: flow cytometry, PCSK9 left on CHO-LDLR cells (anti-His-FITC) after premix with 0.1 nM control IgG
[4] = molecular target: human PCSK9 (PCSK9 antigen, SEQ ID NO. 53) (human); assay: flow cytometry, PCSK9 left on CHO-LDLR cells (anti-His-FITC) after premix with 1000 nM control IgG
[5] = molecular target: human PCSK9 (PCSK9 antigen, SEQ ID NO. 53) (human); assay: flow cytometry, PCSK9 left on CHO-LDLR cells (anti-His-FITC) after premix with 100 nM control IgG
[6] = molecular target: human PCSK9 (PCSK9 antigen, SEQ ID NO. 53) (human); assay: flow cytometry, PCSK9 left on CHO-LDLR cells (anti-His-FITC) after premix with 1 nM control IgG
[7] = molecular target: human PCSK9 (PCSK9 antigen, SEQ ID NO. 53) (human); assay: cell-based or functional assay
[8] = molecular target: human PCSK9 (PCSK9 antigen, SEQ ID NO. 53) (human); assay: MSD-SET, Fab with biotin-PCSK9 in solution, IgG on plate, pH 6.0
[9] = molecular target: cynomolgus PCSK-9 (cynomolgus); assay: MSD-SET, Fab with biotin-PCSK9 in solution, IgG on plate, pH 7.4
murine PCSK-9 (murine) = murine PCSK-9 (murine) (UniProt Q80W65); assay: as above
[10] = molecular target: human PCSK9 (PCSK9 antigen, SEQ ID NO. 53) (human); assay: as above

- Kd [1]: 383 pM
Substance: Alirocumab (antibody)

- Fluorescence Signal Value [2]: 6960
- Fluorescence Signal Value [3]: 7000
- Fluorescence Signal Value [4]: 8920
- Fluorescence Signal Value [5]: 7520
- Fluorescence Signal Value [6]: 6730
- BODIPY-LDL uptake by HepG2 cells, fluorescence, 4.2 nM, replicate 1 [7]: 0.358
- BODIPY-LDL uptake by HepG2 cells, fluorescence, 4.2 nM, replicate 2 [7]: 0.325
- BODIPY-LDL uptake by HepG2 cells, fluorescence, 16.8 nM, replicate 1 [7]: 0.297
- BODIPY-LDL uptake by HepG2 cells, fluorescence, 16.8 nM, replicate 2 [7]: 0.309
- BODIPY-LDL uptake by HepG2 cells, fluorescence, 66.7 nM, replicate 1 [7]: 0.329
- BODIPY-LDL uptake by HepG2 cells, fluorescence, 66.7 nM, replicate 2 [7]: 0.288
Substance: IgG (negative control) (antibody)

- Kd [1]: 476 pM
Substance: Bococizumab (antibody)

- Kd [1]: 1300 pM
Substance: Evolocumab (antibody)

- Kd [8]: 51 pM
- Kd [9]: 82 pM
- Kd (murine PCSK-9 (murine)): 300 pM
- Kd [10]: 72 pM
Substance: Alirocumab Fab

- Kd [9]: 8.2 pM
- Kd [10]: 16 pM
Substance: Evolocumab Fab
